Measured values from the supplement of paper PMC12764529.
± gives the half width of the 95% confidence interval.

Columns and labels:
[1] = folding stability dG unfold from trypsin proteolysis; higher = more stable
Procedure: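 Folding stability of de novo designed mini-proteins (<80 aa, no Cys; designed by TrROS, TrMRF, ProteinMPNN and the joint model) was measured by cDNA display proteolysis with trypsin and chymotrypsin. Each protease was used at 11 concentrations in a threefold dilution series plus a no-protease condition. K50 was inferred by Bayesian fitting of sequencing counts, and dG unfold was derived against a sequence-predicted unfolded-state K50 (Tsuboyama et al. method). Sequences shown include variable-length N-terminal GS-type padding (SAGGSAGG...) inside a display construct carrying a PA tag. Rows were kept only if the AF2 dimer inter-PAE was >15, to exclude likely homo-oligomers.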

[2] = folding stability dG unfold (combined trypsin and chymotrypsin); higher = more stable
How it was run: (§1)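 Bayesian fitting of sequencing counts gave K50 for each design. Unfolding free energy followed by setting this against a sequence-predicted unfolded-state K50 and a shared folded-state K50, either per protease or with trypsin and chymotrypsin combined. The designs, under 80 residues and lacking cysteine, were digested in a PA-tagged cDNA display format at 11 threefold-diluted protease concentrations and without protease, and only those with AlphaFold2 dimer inter-PAE above 15 were kept.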

[3] = folding stability dG unfold from chymotrypsin proteolysis; higher = more stable
How it was run: as §1

| Sequence | folding stability dG unfold [1] | folding stability dG unfold [2] | folding stability dG unfold [3] |
| --- | --- | --- | --- |
| DWKTRTVMFPVPPGDLEEAKDRAKELAKELPPGNKIEIEMPNPDGHYFMVTVTVDPNGEIDIDVSPGMRPIS [r1_350_TrROS] | -0.418 ± 0.29 kcal/mol | -0.547 ± 0.38 kcal/mol |  |
| GMAEELAVEKAKEYLAPIPKPYEIDPEKKTVTLPGGGPLKTIPILVTVKDENGNVIKVIEVPIKVVSIPPGS [r1_318_JUSTAS] | 0.0543 ± 0.093 kcal/mol | -0.159 ± 0.25 kcal/mol |  |
| MAVTPEVLERMREEGVPEEVLAELGEVAVPSSDPRPEYIAELRALPGVSEVSPIPPTDPAALAALPERLLES [r1_248_JUSTAS] | -0.884 ± 0.54 kcal/mol | < -1 kcal/mol |  |
| MHKVEHTIKHPGYEIKIEVTMYPNPNGNYYVPIKIEREDPKDNKPKKKPIMVPFPPGDPDDFVDWALEEILS [r1_171_TrROS] | -0.189 ± 0.17 kcal/mol | -0.207 ± 0.55 kcal/mol |  |
| SAASTLKATLRPPDGSTLDVTVLDPGEGWLLQLGDGSERVSPEELEALLANDPSLVVEELTELPLEELSSAG [r14_336_JUSTAS] | 0.175 ± 0.05 kcal/mol | -0.654 ± 0.2 kcal/mol |  |
| SAAVSFTPDGRPRRLEPVPPVPPVIEIPVPLNIPESDPAKKEALRKEIKEKIMKELGLPESVPVKVILLSAG [r14_453_JUSTAS] | 0.199 ± 0.15 kcal/mol | -0.158 ± 0.55 kcal/mol |  |
| SAEIEELARKLAEELGAEVVEVKVEKLPNGTVKVTVVVRVNGELYKVTIEYDKETKEITIKIEKLPEEESAG [r14_784_TrROS_Hall] | 3.81 ± 0.48 kcal/mol | > 6 kcal/mol |  |
| SAGGGGMPAVKEEVTPVPGGVLTTTTLPDGSVKVTVSPPSGPAVASATKPVPSGSSVTVTVTLRPAALSAGG [r13_584_JUSTAS] | 0.367 ± 0.019 kcal/mol | -0.335 ± 0.087 kcal/mol |  |
| SAGGGKIKKPKPIVIRVPKNSIKVGDDVPVAVLAKALGIDPSAKAKVGEVKPPENGDYELVVVEVESSAGGS [r16_165_TrMRF] | -0.508 ± 0.34 kcal/mol | < -1 kcal/mol |  |
| SAGGGMSTPVGVDSKLTEVREDTETGLITTTSVYRAGSEVTTVTESRPLGNPEDVTTLETTTTPASASAGGS [r16_89_JUSTAS] | 0.0405 ± 0.041 kcal/mol | -0.204 ± 0.15 kcal/mol |  |
| SAGGGNMKTITVPASAVTSITRSPTNPNTLTITVSGSGATTTTTLPITPETKITEEGDTVTVTIPGLSAGGS [r16_22_JUSTAS] | 0.312 ± 0.037 kcal/mol | -0.263 ± 0.096 kcal/mol |  |
| SAGGGVTREIPITIKTSEGEPEETITVPAKSREEVDPETGRPVSSVDPGSIEEIKAKLPSSVTSVVLSAGGS [r16_522_JUSTAS] | -0.68 ± 0.077 kcal/mol | < -1 kcal/mol |  |
| SAGGIKLPPGQEIEGKIQYPFPDGMFMTSEQPIRIPPVPPPPPEVEVHLPDGERKPVRSPEEADDAASAGGS [r16_580_TrROS] | 0.0184 ± 0.049 kcal/mol | -0.511 ± 0.26 kcal/mol |  |
| SAGGKWYVMVKYEWRNPDNGKERNIQVPINREALQEGDLEEAVEEAKKFAREWGYPIKKVEINLMPPGSAGG [r13_954_TrROS] | -0.106 ± 0.17 kcal/mol | -0.232 ± 0.46 kcal/mol |  |
| SAGGMLLYEKTVTSSPDDEALKLAKEIEEKLTPPDYITKIKVEVTPLPNGTYKVTIPIEILPPGYPKSAGGS [r16_128_JUSTAS] | -0.0273 ± 0.076 kcal/mol | -0.426 ± 0.19 kcal/mol |  |
| SAGGMTFVKVKPAPVKFGEGDKEYWVVEIVKVLEVEDVGEKPVVKAEKETIIIPKDNPDALKEAGIDASAGG [r13_670_TrMRF] | -1.02 ± 0.22 kcal/mol | < -1 kcal/mol |  |
| SAGGMTSYSVTVELPETGKKITITVPNNDPNVTPEKAAAEAEKRIKAEKEKIKKELEKKPKKPSSKLKSAGG [r13_126_JUSTAS] | -0.907 ± 0.93 kcal/mol | < -1 kcal/mol |  |
| SAGGMVSPEVVKAALDDGNPLPLSEIVARIEAETGLPVEVETGDDSFRIVIRDPNRDVELSSETILLSAGGS [r8_105_JUSTAS] | 0.292 ± 0.057 kcal/mol | -0.399 ± 0.25 kcal/mol |  |
| SAGGNVEIERNPDGMITVEFPMKSPEQAIEEVKNFLQQQGWKIKDIPVERPPNGWVKITIPIKPPGASAGGS [r8_253_TrROS] | 0.34 ± 0.057 kcal/mol | 0.0774 ± 0.3 kcal/mol |  |
| SAGGNWIMIELPLDDLKNAKPNQKVKIEWPDGKPFEVNAHRHDGRYPVLVRNPENPDKWEPIGEIEIESAGG [r13_745_TrROS] | -0.0737 ± 0.11 kcal/mol | < -1 kcal/mol |  |
| SAGGPMKVQVAVWRRDPDNGEPKEVEIPMTWDNIRELLDDIPPDGRYMVKIHSPGQPQTIPLEDLKELSAGG [r13_254_TrROS] | 0.153 ± 0.42 kcal/mol | < -1 kcal/mol |  |
| SAGGPNIEIEQERHPDDGMWTINVKWDNPAEIVEEIAKEIREQNRDIPIMITGPDGNPIMIPLDDIRSAGGS [r8_236_TrROS] | 0.177 ± 0.049 kcal/mol | -0.817 ± 0.39 kcal/mol |  |
| SAGGPVIKIPIEIMMPNNDLNKFANEIAKELQDDGYKVKINPIEFEPQRDPDGKPDYVHFRATVEVQPSAGG [r13_707_TrROS] | -0.228 ± 0.18 kcal/mol | < -1 kcal/mol |  |
| SAGGSAEKLEEAIEEAKKVPEGAEVPILITVEKDGKPVVFEVKITRLPKEKKIKIDPLKAYLPEEFSAGGSA [r15_724_TrMRF] | -0.63 ± 0.39 kcal/mol | < -1 kcal/mol |  |

| Sequence | folding stability dG unfold [1] | folding stability dG unfold [2] | folding stability dG unfold [3] |
| --- | --- | --- | --- |
| SAGGSAGGDGHPDILNAVFTRTETFYREGDDEPGGEGTREILVVVTGDNPENPELALKEAEEAASAGGSAGG [r6_928_TrMRF] | 0.601 ± 0.055 kcal/mol | 0.0849 ± 0.18 kcal/mol |  |
| SAGGSAGGDPSRLPVITPETFNVPVPAPGGVNETVTVTVIKLPGGETIVTTTYPDGKTTTELIPSAGGSAGG [r6_111_JUSTAS] | 0.927 ± 0.058 kcal/mol | 0.182 ± 0.15 kcal/mol |  |
| SAGGSAGGGMVTVEIPLEVTLTTSLTPEPGTAQTVTLPVVVTIEFPPGNPEKLKKEVEKIKKKSSAGGSAGG [r6_280_JUSTAS] | -0.456 ± 0.2 kcal/mol | < -1 kcal/mol |  |
| SAGGSAGGIRIHRDNDKYVIHVPMDPNQPPENIKDILRDLPGLEDPEEIEYVPNPNGQAMIKIPSAGGSAGG [r6_516_TrROS] | -0.0828 ± 0.18 kcal/mol | < -1 kcal/mol |  |
| SAGGSAGGKIEIFDQDQHDEMNQENGMPPKNYWMIRINGKPTAILPPDKPLTPNTIKNLIKEGLSAGGSAGG [r6_243_TrROS] | 0.447 ± 0.15 kcal/mol | -0.799 ± 0.8 kcal/mol |  |
| SAGGSAGGKKVFLPYSVISTVVPKHFPGDEKQALIDAEFLAKKAEEAGFKDVDFVISPVPPGAPSAGGSAGG [r6_545_TrMRF] | -0.467 ± 0.23 kcal/mol | -0.938 ± 0.27 kcal/mol |  |
| SAGGSAGGMITIPINTPGLSPAEAAAIKAQLEADGYPAAEVTITASPVPPVPPLGPENIYSNRGSAGGSAGG [r6_246_JUSTAS] | -0.0678 ± 0.047 kcal/mol | < -1 kcal/mol |  |
| SAGGSAGGMKAKVLVLDPETGKEYDSLEELKAEVEGPVLIRNSTGELILLHRDDLKYFPLPLSLSAGGSAGG [r6_684_TrMRF] | 0.305 ± 0.12 kcal/mol | 0.0344 ± 0.2 kcal/mol |  |
| SAGGSAGGSAGGKKKKKKVSINIRGGMSVEEVKGKAQELQSQGDPDVKEVKIHISPNMWSAGGSAGGSAGGS [r10_233_TrROS] | 0.33 ± 0.11 kcal/mol |  |  |
| SAGGSAGGSAGGSMVAKELAEKIGAKVEGVEVKPIFDPEGKPVSEELKAKIEVLPPDYPLSAGGSAGGSAGG [r7_650_JUSTAS] | -0.537 ± 0.19 kcal/mol |  |  |
| SAGGSAGGSAGGTAEELKEKLPDVEFVPLEELENSVLILAKPPGGPVKLILVDGDKVVVASAGGSAGGSAGG [r7_25_TrMRF] | 0.322 ± 0.097 kcal/mol |  |  |
| SAMPITVTVKKTVTLPPPGPEHQKLLDPNGTVRTVTVEETETITVSPEEIEKVKEEAEAKGIEEVTVVDSAG [r14_509_JUSTAS] |  | 0.267 ± 0.15 kcal/mol | 0.732 ± 0.051 kcal/mol |
| SDKDEKVIPSTSTSTDPETGTVTTTSTNTTITKGKIISPTTVTTTYPTATTTTTSTTIVDPNGNITTINSSA [r9_1015_JUSTAS] |  | 0.299 ± 0.14 kcal/mol | 0.97 ± 0.042 kcal/mol |
| SDLQWEFPVKKPKDQAEQAVEKAKKEFPGFKEVDDIDVERNPDNYRIKMRIRDDKMPPEVADKLRKALQDSA [r9_195_TrROS] |  | < -1 kcal/mol | -0.454 ± 0.46 kcal/mol |
| SGGATVEAFRRAPPGVRARILVEERGEELIVRLEIEGDDRRDEAEFPDPEEALARLLAAGVPVVVDELPASA [r9_1021_TrMRF] |  | < -1 kcal/mol | -0.708 ± 0.76 kcal/mol |
| SKKRILIVTDEKDLSPEEAAKLLEELGIEEVKVVKSAEELKNLPPEVDEVIVVTPPPPVKVEFSPEELEKSA [r9_750_TrROS_Hall] |  | -0.626 ± 0.43 kcal/mol | -0.309 ± 0.069 kcal/mol |
| SMKVLEGEEEAKKLAEEEGVPVIPVPADVSLEEIKKRIKETPGFPPDTVVATVIPKEPGRTTVIVLPLGKSA [r9_314_JUSTAS] |  | 0.0112 ± 0.1 kcal/mol | 0.474 ± 0.035 kcal/mol |
| SNLKIKWPNGHEIPIQKNNENVRIKFPGNGQEHPIPKEALEDNTPEEILDHLRDHFRQHGMPPMPVEIEKSA [r9_1211_TrROS] |  | 0.192 ± 0.38 kcal/mol | 0.602 ± 0.083 kcal/mol |
| SNVFPMEMTITVPVRDPKNGKKKTVDIPVPMYYRMEPEPYPDGKREMEPIPMEQFLEEIRRQAKELAKKGSA [r9_698_TrROS] | 0.764 ± 0.21 kcal/mol |  |  |
| SPEFKIAEVRVEAFPDGTVKAEVRFEGGTETAVFDAPVDPETGVVPVRARIYNPETGEVSEFTATGRIGASA [r9_825_TrMRF] |  | -0.325 ± 0.17 kcal/mol | 0.0658 ± 0.16 kcal/mol |
| SPKWKPIAEIPFKNGDPDEFIDKLKDAFPPDPPVQITFNGPDGPPMRIWIDPDEGRIDDIYPGGQIRIIPSA [r9_853_TrROS] |  | < -1 kcal/mol | -0.986 ± 0.39 kcal/mol |
| SSSMTIAKTEVETYPDGVIRTKETFPGSDTYREFDIPVDPSTGKMPVKSTLYDPKTGKSIETTSEIELLESA [r9_825_JUSTAS] |  | -0.884 ± 0.64 kcal/mol | -0.537 ± 0.33 kcal/mol |
| SVITANDIKEMRKLGIEPIEHDPDNRYRFKFPRMNQPIEVEVKPVPPPPPIEIPDNMDSPEEADKWQDTFSA [r9_649_TrROS] |  | 0.259 ± 0.23 kcal/mol | 0.565 ± 0.16 kcal/mol |
| SVPVTDETLYPDPSNALPISLVSQLGPDGSSVTTSITLPGRSMTQSVDPSTGRVTGNYPGTGLSSTVTSVPS [r1_125_JUSTAS] |  | 0.0698 ± 0.11 kcal/mol | 0.348 ± 0.051 kcal/mol |
